Test results: the supplement of paper PMC12764529
± gives the half width of the 95% confidence interval.

Columns and labels:
[1] = folding stability dG unfold (combined trypsin and chymotrypsin); higher = more stable
Summary of the method: (§1)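 Sequencing followed digestion of designed mini-proteins with trypsin and chymotrypsin, each at 11 concentrations in threefold dilutions together with a no-protease condition. The mini-proteins were under 80 residues, had no cysteine, sat in a PA-tagged cDNA display construct, and were kept only if AlphaFold2 dimer inter-PAE was above 15. From the counts, Bayesian fitting gave K50, and unfolding free energy was derived against a sequence-predicted unfolded-state K50 and a shared folded-state K50, per protease or combined.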

[2] = folding stability dG unfold from chymotrypsin proteolysis; higher = more stable
Summary of the method: as §1

[3] = folding stability dG unfold from trypsin proteolysis; higher = more stable
Summary of the method: as §1

Row | Sequence | folding stability dG unfold [1] [kcal/mol] | folding stability dG unfold [2] [kcal/mol] | folding stability dG unfold [3] [kcal/mol]
1 | SDKVVIHFYPGMPVSNIVERVADNPDMTIEIVMPPGMKPSWYNYIRKALRDANIPKDQKVEIEWVPYDDMSA [r9_670_TrROS] | 3.59 ± 0.081 | 3.92 ± 0.042 | 3.11 ± 0.12
2 | SEAEVEVEVLPGPDAVVVRVRLPGRDEVVELRVLDPHPGEGRVLVAVSPGDDDTVVVRDLSPEDIKALLASA [r9_1221_TrMRF] | 1.5 ± 0.056 | 0.973 ± 0.055 | 1.843 ± 0.018
3 | SEAKTMSPEELKEFIEEYIEEERKKNPGKPVRIAIEDLKEKFPGFSPEELKKLLGLSEEELENGAIEIEPSA [r9_525_TrMRF] | 2.22 ± 0.24 | 2.38 ± 0.11 | 1.81 ± 0.087
4 | SEEIIKALEEAGYEVESIEYDEETKTVTITIYRKNKETGKIEKKTITIEVEPGMTEEELLALARELLEKESA [r9_184_TrROS_Hall] | 4.83 ± 0.66 | 4.71 ± 0.31 | 4.77 ± 0.93
5 | SEETLRILIRDPATGELREIEVRAGETVTVTFPDGSTVTLRITVVAAPPPPPKTVTLDPNETVEEGETVLSA [r9_467_TrROS_Hall] | 2.1 ± 0.092 | 1.9 ± 0.038 | 2.24 ± 0.084
6 | SEEVEIEIRIRVEVDSLEEARALAEALEELGFEVEVKVVERDGKLVVEVTIRIRVPAPPPPPLSEEELKASA [r9_863_TrROS_Hall] | 2.17 ± 0.19 | 1.55 ± 0.14 | 2.49 ± 0.11
7 | SEFELKIEEEEDPATGVLRVTVTFNTSLEDAKEKLKELLKESGLNAVIKSVEEKKVGPEVTITFEIEIPPSA [r9_164_JUSTAS] | 3.05 ± 0.057 | 3.27 ± 0.052 | 2.71 ± 0.065
8 | SEKIKELIKKLAEELNLKIVKIEKKEDGKIIIEFENGIKIEIEIDPEKKNKIKIKIEKTKNGKLKITIEPSA [r9_809_TrROS_Hall] | 2.24 ± 0.12 | 2.65 ± 0.14 | 1.67 ± 0.11
9 | SEKIVIEFPNPEEATVELIKSIIKPYLEPGEKVKIKVFSKDGKPLFEKELEFNEVEEVPKEKDYLIVIEKSA [r9_264_TrMRF] | 1.14 ± 0.21 | 1.3 ± 0.1 | 0.97 ± 0.076
10 | SEKPLVTLELELVVETEEQARAAVEALLAALPEEEIVDIRVEVEEVDVFENGELVGRRRRVRVTIVVRRPSA [r9_605_TrROS_Hall] | 4.41 ± 0.25 | 4.06 ± 0.26 | 4.31 ± 0.24
11 | SEKTVLSSSTSTSPTSITTTTTVKLPDGSLITTTTTYSSVTAAPTPAPGGTLVPTYSLPTTTTTTTLPPASA [r9_240_JUSTAS] | 0.63 ± 0.11 | 0.309 ± 0.13 | 0.845 ± 0.025
12 | SEMSVEEILKKIAEELLKKNPNKEVTKEIEIEFEKPDPEGKRLLKEKVKATIKVTPDKIEILSESREILLSA [r9_361_JUSTAS] | 1.31 ± 0.18 | 1.07 ± 0.054 | 1.52 ± 0.066
13 | SEPRYHVEIRLPVLLVVPPELLEPDPERDSYRLPEDDLPVHPDAVIPREVTFSGPMTAEEVVRRTLALLSSA [r9_165_TrMRF] | 1.04 ± 0.085 | 1.38 ± 0.13 | 0.455 ± 0.11
14 | SEPWELVEERELPPNAVITFPNGEKLEIDPEKARVRVWRRPDSVRVLVVLKDGTVLEFEFYAPPRVTDDDSA [r9_348_TrMRF] | 2.69 ± 0.1 | 2.58 ± 0.033 | 2.62 ± 0.074
15 | SERLKLKITIKNANGETYEVEIEFDLETNELTIKVKPVPALPPVTEKRVVKKDGKLVEETRTVLLSEEDLSA [r9_587_TrROS_Hall] | 1.74 ± 0.38 | 1.83 ± 0.1 | 1.02 ± 0.16
16 | SETETITVEVTMPAEELANMSAEELAARLREAFPDLKITSISITVEEVEDPETGERLVRVTVTITVERVPSA [r9_1189_TrROS_Hall] | 4.31 ± 0.15 | 3.4 ± 0.068 | 4.28 ± 0.11
17 | SETITLEIELPDGSKLTIEIPVEKIPGVDEYVVTVKITEYLPNGKPRSREFTFLAKSPEEAVEIALLAAGSA [r9_337_TrMRF] | 5.57 ± 0.21 | 5.57 ± 0.16 | 4.7 ± 0.24
18 | SETYKVTVLAEVRIYSRSPDGTWKPIGVFPVEATVEYPAEYREEAERKAVEKVEEEVRKFAESHGVVVEASA [r9_356_TrMRF] | 1.91 ± 0.16 | 2.31 ± 0.13 | 1.57 ± 0.043
